# Measured values published in the supplement of paper PMC9112550, “Optimization of the antimicrobial peptide Bac7 by deep mutational scanning” (BMC Biology, 2022).
# Tested on: Escherichia coli TOP10
# Experiment: shrunken log2 fold change of peptide-encoding DNA abundance (4.5 h post-induction vs induction); higher = less antimicrobial activity (less host growth inhibition)
# Details: time post-induction: 4.5 h; library: site-saturation at positions 5, 18, 19, 20
# 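Further: peptides expressed intracellularly from a pBAD plasmid library in pooled LB shake-flask culture, induced with 0.3% L-arabinose, DNA abundance read by NGS, three biological replicates, DESeq2 with apeglm shrinkage.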
row,Sequence,shrunken log2 fold change
1,RRIRGRPPRLPRPRPRPYSFPRP,0.0271
2,RRIRYRPPRLPRPRPRPQDIPRP,-0.252
3,RRIRKRPPRLPRPRPRPRMDPRP,0.236
4,RRIRCRPPRLPRPRPRPKEHPRP,-0.201
5,RRIRYRPPRLPRPRPRPCQQPRP,-0.163
6,RRIRLRPPRLPRPRPRPSWNPRP,-0.342
7,RRIRTRPPRLPRPRPRPAREPRP,0.44
8,RRIRPRPPRLPRPRPRPNPAPRP,0.234
9,RRIRQRPPRLPRPRPRPHHSPRP,-0.107
10,RRIRRRPPRLPRPRPRPAVKPRP,0.0474
11,RRIRGRPPRLPRPRPRPDECPRP,-0.00184
12,RRIRCRPPRLPRPRPRPRAFPRP,-0.0361
13,RRIRIRPPRLPRPRPRPQHIPRP,-0.542
14,RRIRGRPPRLPRPRPRPNSPPRP,-0.0974
15,RRIRGRPPRLPRPRPRPELYPRP,1.14
16,RRIRGRPPRLPRPRPRPNGDPRP,0.115
17,RRIRCRPPRLPRPRPRPGTYPRP,-0.628
18,RRIRKRPPRLPRPRPRPRNKPRP,-0.08
19,RRIRRRPPRLPRPRPRPHRSPRP,-0.00354
20,RRIRTRPPRLPRPRPRPRSGPRP,0.284
21,RRIRLRPPRLPRPRPRPEKYPRP,-0.397
22,RRIRHRPPRLPRPRPRPPSTPRP,-0.0909
23,RRIRFRPPRLPRPRPRPDNIPRP,-0.269
24,RRIRCRPPRLPRPRPRPNSSPRP,-0.366
25,RRIRYRPPRLPRPRPRPKHYPRP,-0.895

row,Sequence,shrunken log2 fold change
1,RRIRQRPPRLPRPRPRPKMCPRP,-0.002
2,RRIRARPPRLPRPRPRPMWDPRP,-0.103
3,RRIRFRPPRLPRPRPRPCGSPRP,0.06
4,RRIRERPPRLPRPRPRPGMTPRP,-0.324
5,RRIRCRPPRLPRPRPRPNNYPRP,-0.81
6,RRIRCRPPRLPRPRPRPQTPPRP,0.48
7,RRIRVRPPRLPRPRPRPVDQPRP,-0.0903
8,RRIRSRPPRLPRPRPRPVVNPRP,0.0966
9,RRIRERPPRLPRPRPRPMHRPRP,-0.157
10,RRIRSRPPRLPRPRPRPGYRPRP,-0.0248
11,RRIRSRPPRLPRPRPRPVKTPRP,-0.0806
12,RRIRMRPPRLPRPRPRPHDFPRP,0.143
13,RRIRTRPPRLPRPRPRPCLIPRP,-0.0324
14,RRIRERPPRLPRPRPRPNIWPRP,-0.0737
15,RRIRDRPPRLPRPRPRPECDPRP,1.39
16,RRIRSRPPRLPRPRPRPFPVPRP,-0.516
17,RRIRVRPPRLPRPRPRPVYKPRP,-0.302
18,RRIRGRPPRLPRPRPRPVWMPRP,-0.117
19,RRIRGRPPRLPRPRPRPIATPRP,3
20,RRIRFRPPRLPRPRPRPVVHPRP,-0.106
21,RRIRLRPPRLPRPRPRPYDAPRP,-0.211
22,RRIRPRPPRLPRPRPRPYYDPRP,-0.745
23,RRIRSRPPRLPRPRPRPPRKPRP,0.73
24,RRIRIRPPRLPRPRPRPKNGPRP,-0.202
25,RRIRDRPPRLPRPRPRPYAVPRP,-0.165

row,Sequence,shrunken log2 fold change
1,RRIRSRPPRLPRPRPRPRSHPRP,-0.203
2,RRIRLRPPRLPRPRPRPCFDPRP,-0.293
3,RRIRLRPPRLPRPRPRPDQNPRP,-0.0565
4,RRIRDRPPRLPRPRPRPFSGPRP,-0.214
5,RRIRERPPRLPRPRPRPNSGPRP,-0.463
6,RRIRARPPRLPRPRPRPFPTPRP,0.311
7,RRIRMRPPRLPRPRPRPTTLPRP,0.34
8,RRIRKRPPRLPRPRPRPQHPPRP,0.105
9,RRIRLRPPRLPRPRPRPCAAPRP,0.236
10,RRIRNRPPRLPRPRPRPKINPRP,-0.387
11,RRIRARPPRLPRPRPRPMNKPRP,-0.00986
12,RRIRFRPPRLPRPRPRPMKTPRP,-0.0807
13,RRIRKRPPRLPRPRPRPIIHPRP,-0.0792
14,RRIRERPPRLPRPRPRPFAKPRP,-0.386
15,RRIRGRPPRLPRPRPRPMPMPRP,0.352
16,RRIRKRPPRLPRPRPRPANSPRP,-0.0423
17,RRIRTRPPRLPRPRPRPVSAPRP,0.252
18,RRIRHRPPRLPRPRPRPECDPRP,-0.0404
19,RRIRCRPPRLPRPRPRPTCYPRP,-0.154
20,RRIRERPPRLPRPRPRPCIDPRP,-0.00146
21,RRIRQRPPRLPRPRPRPVEYPRP,-0.434
22,RRIRLRPPRLPRPRPRPHEFPRP,-0.0833
23,RRIRMRPPRLPRPRPRPSEWPRP,0.0913
24,RRIRWRPPRLPRPRPRPPKWPRP,0.627
25,RRIRARPPRLPRPRPRPNIEPRP,0.0171

row,Sequence,shrunken log2 fold change
1,RRIRTRPPRLPRPRPRPEYKPRP,0.134
2,RRIRVRPPRLPRPRPRPHLAPRP,0.101
3,RRIRFRPPRLPRPRPRPIGPPRP,0.0274
4,RRIRSRPPRLPRPRPRPRMCPRP,-0.155
5,RRIRLRPPRLPRPRPRPITLPRP,-0.553
6,RRIRFRPPRLPRPRPRPDSMPRP,-0.715
7,RRIRIRPPRLPRPRPRPYVLPRP,-0.588
8,RRIRLRPPRLPRPRPRPSHGPRP,-0.0685
9,RRIRCRPPRLPRPRPRPFWYPRP,-0.353
10,RRIRWRPPRLPRPRPRPFHKPRP,-0.28
11,RRIRIRPPRLPRPRPRPPGSPRP,0.0671
12,RRIRFRPPRLPRPRPRPDIIPRP,0.0368
13,RRIRARPPRLPRPRPRPACRPRP,0.896
14,RRIRYRPPRLPRPRPRPLLHPRP,-0.541
15,RRIRMRPPRLPRPRPRPNRSPRP,-0.0367
16,RRIRMRPPRLPRPRPRPKKLPRP,0.354
17,RRIRTRPPRLPRPRPRPTQIPRP,0.0112
18,RRIRGRPPRLPRPRPRPHPMPRP,0.497
19,RRIRCRPPRLPRPRPRPAPQPRP,0.829
20,RRIRKRPPRLPRPRPRPEVSPRP,0.219
21,RRIRCRPPRLPRPRPRPAIPPRP,-0.246
22,RRIRTRPPRLPRPRPRPWFLPRP,-0.401
23,RRIRWRPPRLPRPRPRPISQPRP,-0.392
24,RRIRDRPPRLPRPRPRPLVPPRP,0.249
25,RRIRNRPPRLPRPRPRPWMGPRP,-0.558

row,Sequence,shrunken log2 fold change
1,RRIRHRPPRLPRPRPRPMSYPRP,-0.0194
2,RRIRFRPPRLPRPRPRPTEVPRP,-0.0247
3,RRIRIRPPRLPRPRPRPMLKPRP,-0.282
4,RRIRGRPPRLPRPRPRPKEPPRP,0.875
5,RRIRTRPPRLPRPRPRPHICPRP,-0.13
6,RRIRKRPPRLPRPRPRPRIWPRP,0.434
7,RRIRMRPPRLPRPRPRPPTEPRP,0.413
8,RRIRARPPRLPRPRPRPQGPPRP,-0.0931
9,RRIRVRPPRLPRPRPRPFICPRP,-0.331
10,RRIRARPPRLPRPRPRPESRPRP,0.147
11,RRIRSRPPRLPRPRPRPMCMPRP,-0.000628
12,RRIRPRPPRLPRPRPRPQFIPRP,-0.653
13,RRIRNRPPRLPRPRPRPVAVPRP,-0.0786
14,RRIRPRPPRLPRPRPRPHHEPRP,-0.066
15,RRIRERPPRLPRPRPRPAACPRP,0.0165
16,RRIRKRPPRLPRPRPRPCEDPRP,0.563
17,RRIRNRPPRLPRPRPRPGDDPRP,0.0116
18,RRIRGRPPRLPRPRPRPERHPRP,0.834
19,RRIRFRPPRLPRPRPRPQQFPRP,0.0682
20,RRIRTRPPRLPRPRPRPCDHPRP,-0.0753
21,RRIRYRPPRLPRPRPRPRPFPRP,-0.104
22,RRIRHRPPRLPRPRPRPGMQPRP,0.0824
23,RRIRNRPPRLPRPRPRPAPIPRP,0.169
24,RRIRSRPPRLPRPRPRPQFQPRP,-0.124
25,RRIRSRPPRLPRPRPRPCKGPRP,-0.3

row,Sequence,shrunken log2 fold change
1,RRIRTRPPRLPRPRPRPWMSPRP,0.00487
2,RRIRMRPPRLPRPRPRPIIKPRP,-0.265
3,RRIRNRPPRLPRPRPRPEVAPRP,0.418
4,RRIRVRPPRLPRPRPRPARDPRP,0.355
5,RRIRDRPPRLPRPRPRPYSLPRP,-0.017
6,RRIRCRPPRLPRPRPRPQDTPRP,-0.313
7,RRIRIRPPRLPRPRPRPTTHPRP,-0.441
8,RRIRDRPPRLPRPRPRPELDPRP,1.47
9,RRIRCRPPRLPRPRPRPGQLPRP,-0.00796
10,RRIRLRPPRLPRPRPRPAFNPRP,-0.189
11,RRIRRRPPRLPRPRPRPEGAPRP,1.05
12,RRIRERPPRLPRPRPRPVKAPRP,-0.0316
13,RRIRLRPPRLPRPRPRPWCKPRP,-0.213
14,RRIRERPPRLPRPRPRPGLLPRP,-0.0986
15,RRIRRRPPRLPRPRPRPVHPPRP,0.348
16,RRIRRRPPRLPRPRPRPDVRPRP,0.0483
17,RRIRSRPPRLPRPRPRPWHVPRP,-0.0882
18,RRIRVRPPRLPRPRPRPAFYPRP,-0.135
19,RRIRSRPPRLPRPRPRPFDKPRP,-0.232
20,RRIRKRPPRLPRPRPRPNRNPRP,-0.234
21,RRIRDRPPRLPRPRPRPALHPRP,0.438
22,RRIRGRPPRLPRPRPRPRHHPRP,2.5
23,RRIRHRPPRLPRPRPRPSAAPRP,0.334
24,RRIRQRPPRLPRPRPRPKGNPRP,-0.365
25,RRIRLRPPRLPRPRPRPNDRPRP,-0.422
